Assay results: patent US20170275344A1, “POLYPEPTIDES AND USES THEREOF AS A DRUG FOR TREATMENT OF AUTOIMMUNE DISORDERS” (Compugen Ltd., priority 2014, published 2017)

Columns and labels:
SJL/J mice = experiment: T cell and Treg counts in spleen and CNS, day 44 of EAE with IL-10 or TGFb blockade (FACS); format: in vivo, mouse
Description: On day 44 post disease induction, the rest of the mice were sacrificed and spleens and CNS were taken for cell counts and cell population analysis as described below.
2. The spleens and CNS were collected.
4. Experimental stains (CD45, CD3, CD4, CD25, FoxP3, Nrp-1, and Helios)
9. Gating scheme for flow: Singlets (FSC-A vs. FSC-H)->Cells (SSC-A vs. FSC-A)->Live (VID stain negative cells)->CD45hi->CD3/CD4+->CD25/FoxP3+->Helios/Nrp-1

SJL mice = experiment: PLP139-151/CFA R-EAE with Treg inactivation by anti-CD25; format: in vivo, mouse
Method: In two studies, EAE was induced in SJL mice via PLP139-151/CFA priming as described under Methods, below. The mice were divided into 4 and 8 groups in Study I and Study II, respectively groups (n=10/treatment group). In both studies, groups 1-4 the mice received two injections separated by one day, of either Control Ab or anti-CD25 (clone 7D4 at 500 μg/injection i.p. (BioXCell Cat# BE0013; West Lebanon, N.H.)) starting at the onset of disease remission (Day +19 and 21 in Study I or Day +20 and 22 in Study II), followed by treatment with either mIgG2a Control Ig or C1ORF32 ECD-Fc (100 ug/dose; 3×/wk; 2 wks) beginning on the day of the second treatment with anti CD25 (Day 21 in study I and day 22 in study II).
To study the importance of Treg function for maintenance of tolerance by C1ORF32 ECD-Fc a second set of mice was set in study II, groups 5-8, in which mice were treated with Control Ig or C1ORF32 ECD-Fc (SEQ ID NO:42) first in a similar regimen as groups 1-4 (beginning on Day +22), and then two weeks following the last C1ORF32 ECD-Fc (SEQ ID NO:42) treatment, on days 46 and 48, mice received either Control Ab or anti-CD25 (500 μg/injection) to inactivate the Treg cells. The mice were followed for the level of disease severity.
Study I Treatment Groups (n=10 Mice Per Group) 1. Control Ab (Day +19 and 21) plus Control Ig (100 ug/dose; 3×/wk; 2 wks; beginning on Day +21) 2. Anti-CD25 Ab (Day +19 and 21) plus Control Ig (100 ug/dose; 3×/wk; 2 wks; beginning on Day +21) 3. Control Ab (Day +19 and 21) plus C1ORF ECD-Fc (SEQ ID NO:42) (100 ug/dose; 3×/wk; 2 wks; beginning on Day +21) 4. Anti-CD25 Ab (Day +19 and 21) plus C1ORF ECD-Fc (SEQ ID NO:42) (100 ug/dose; 3×/wk; 2 wks; beginning on Day +21) Study II Treatment Groups (n=10 Mice Per Group) 1. Control Ab (Day +20 and 22) plus Control Ig (100 ug/dose; 3×/wk; 2 wks; beginning on Day +22) 2. Anti-CD25 Ab (Day +20 and 22) plus Control Ig (100 ug/dose; 3×/wk; 2 wks; beginning on Day +22) 3. Control Ab (Day +20 and 22) plus C1ORF32 ECD-Fc (SEQ ID NO:42) (100 ug/dose; 3×/wk; 2 wks; beginning on Day +22) 4. Anti-CD25 Ab (Day +20 and 22) plus C1ORF32 ECD-Fc (SEQ ID NO:42) (100 ug/dose; 3×/wk; 2 wks; beginning on Day +22) 5. Control Ig (100 ug/dose; 3×/wk; 2 wks; beginning on Day +22) plus Control Ab (Day +46 and 48) 6. […]
SJL mice were primed with 50 μg PLP139-151/CFA to induce R-EAE, and followed for disease through the acute phase of disease and into disease remission. […] Clinical results are expressed as the mean clinical score.
Mice were followed for disease and scored on a 0-5 scale per standard lab protocol as follows: 0, no abnormality; 1, limp tail; 2, limp tail and hind limb weakness; 3, hind limb paralysis; 4, hind limb paralysis and forelimb weakness; and 5, moribund.

B1: C1ORF32 ECD-Fc (SEQ ID NO:42): fusion protein of human C1ORF32 ECD fused to mouse immunoglobulin Fc (human-mouse fusion protein) (protein)
chain: LQVTVPDKKKVAMLFQPTVLRCHFSTSSHQPAVVQWKFKSYCQDRMGESLGMSSTRAQSLSKRNLEWDPYLDCLDSRRTVRVVASKQGSTVTLGDFYRGREITIVHDADLQIGKLMWGDSGLYYCIITTPDDLEGKNEDSVELLVLGRTGLLADLLPSFAVEIMGSENLYFQGSGEPRGPTIKPCPPCKCPAPNLLGGPSVFIFPPKIKDVLMISLSPIVTCVVVDVSEDDPDVQISWFVNNVEVHTAQTQTHREDYNSTLRVVSALPIQHQDWMSGKEFKCKVNNKDLPAPIERTISKPKGSVRAPQVYVLPPPEEEMTKKQVTLTCMVTDFMPEDIYVEWTNNGKTELNYKNTEPVLDSDGSYFMYSKLRVEKKNWVERNSYSCSVVHEGLHNHHTTKSFSRTPGK
modifications: Fusion protein human C1ORF32-ECD fused to mouse IgG2a Fc
SJL/J mice; administered concomitantly with anti-TGFβ
  NRP+/Helios+ Treg subpopulation in the spleen: increase
SJL/J mice; alone or concomitantly with anti-TGFβ
  Nrp+/HeliosLo Treg subpopulation in the spleen: trend of increase
SJL/J mice; day 44
  T cell counts in the spleen (mainly CD4+): increase
  effects on CNS and spleen cell counts following concomitant neutralization of IL-10 or TGF-β: not observed
  leukocytes and T cell counts in the CNS (CD45+, CD4+, and CD25+/FoxP3+): pronounced decrease
SJL/J mice; treatment alone
  Nrp-/HeliosLo Treg subpopulation in the spleen: upregulation
SJL mice; Study I, Control Ab, 100 ug/dose 3x/wk 2 wks from Day +21
  relapsing EAE disease: abrogated
SJL mice; Study I, treatment starting after anti-CD25 (Day +19 and 21), vs anti CD25 + control Ig
  disease severity: significant decrease in disease severity
SJL mice; Study II, anti-CD25 on days 20 and 22, before treatment from day 22
  disease symptoms: completely inhibited diseases symptoms
SJL mice; Study II, anti-CD25 on days 46 and 48, 2 weeks after completion of treatment
  disease course after late Treg inactivation: immediate relapse which was alleviated as the effect of anti-CD25 dropped off
